Data set [1] has as its system VchCAST RNA-guided transposition machinery (E. coli BL21(DE3) host, lacZ target). Put plainly: relative integration efficiency (T-RL orientation) vs wild-type transposon end (log2 (normalized fold change)); transposon end mutated: right end (5 bp flank + 75 bp right end); higher = more efficient transposition. Summed up: (§1)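 Barcode abundances in input plasmids and in genomic integration junctions were obtained by PCR amplification and Illumina sequencing. These came from E. coli BL21(DE3) co-transformed with a T7-driven effector plasmid and a pUC57 donor carrying 1549 left-end or 1849 right-end transposon variants, then plated with 0.1 mM IPTG at 37°C for 18 h. Relative integration efficiency is the output/input fold change, normalised to reference barcodes and log-transformed.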

The test system is the same in data set [2]. In words: relative integration efficiency (T-LR orientation) vs wild-type transposon end (log2 (normalized fold change)); transposon end mutated: right end (5 bp flank + 75 bp right end); higher = more efficient transposition. The method in brief: as §1

± gives the standard deviation of the averaged measurements.

Take “ACATTTGTTGATACAACCATAAAATGATAATTACACCCATAAATTGATAATTATCACACCCATAAATTGATACTCTGATCATAGTCAGACCAACATTGCTACGACCCGTATTCGCACCGACACTGAC”: the “relative integration efficiency (log2)” value amounted to 0.0156 ± 0.031 in data set [1] and 0.201 ± 0.14 in data set [2].

As to “ACATTTGTTGATACAACCATAAAATGATAATTACACCCATAAATTGATAATTATCACACCCATAAATTGATAGGTAAGAGGATCATAGTCAGACCAACATTGCTACGACCCGTATTCGCACCGACAC”, the “relative integration efficiency (log2)” value in data set [1] is -0.281 ± 0.02; in data set [2], 0.884 ± 0.061.

On to “ACATTTGTTGATACAACCATAAAATGATAATTACACCCATAAATTGATAATTATCACACCCATAAATTGATATCTCTGATCATAGTCAGACCAACATTGCTACGACCCGTATTCGCACCGACACTGA”, for which the “relative integration efficiency (log2)” value is -0.049 ± 0.013 in data set [1] and -0.209 ± 0.13 in data set [2].

Regarding “ACATTTGTTGATACAACCATAAAATGATAATTACACCCATAAATTGATAATTATCACACCCATAAATTGATATGTAAGAGGATCATAGTCAGACCAACATTGCTACGACCCGTATTCGCACCGACAC”, the figures for the “relative integration efficiency (log2)” value in data set [1] and in data set [2] were -0.111 ± 0.0046 and 0.00487 ± 0.23, respectively.

As for “ACATTTGTTGATACAACCATAAAATGATAATTACACCCATAAATTGATAATTATCACACCCATAAATTGATATTCGGACTGATCATAGTCAGACCAACATTGCTACGACCCGTATTCGCACCGACAC”, the “relative integration efficiency (log2)” value is -0.0234 ± 0.0045 in data set [1] and 0.106 ± 0.13 in data set [2].

Take “ACATTTGTTGATACAACCATAAAATGATAATTACACCCATAAATTGATAATTATCACACCCATAAATTGATATTCTCTGATCATAGTCAGACCAACATTGCTACGACCCGTATTCGCACCGACACTG”: the “relative integration efficiency (log2)” value in data set [1] is -0.0876 ± 0.015; in data set [2], -0.29 ± 0.067.

For the sequence “ACATTTGTTGATACAACCATAAAATGATAATTACACCCATAAATTGATAATTATCACACCCATAAATTGATATTGAAGAGGATCATAGTCAGACCAACATTGCTACGACCCGTATTCGCACCGACAC”, the “relative integration efficiency (log2)” value in data set [1] was -0.00509 ± 0.15; in data set [2] it was -0.000932 ± 0.33.

In the case of “ACATTTGTTGATACAACCATAAAATGATAATTACACCCATAAATTGATAATTATCACACCCATAAATTGATATTGAAGATGATCATAGTCAGACCAACATTGCTACGACCCGTATTCGCACCGACAC”, the “relative integration efficiency (log2)” value stood at 0.3393 ± 0.002 in data set [1] and 0.0825 ± 0.095 in data set [2].

Consider “ACATTTGTTGATACAACCATAAAATGATAATTACACCCATAAATTGATAATTATCACACCCATAAATTGATATTGCAGAGGATCATAGTCAGACCAACATTGCTACGACCCGTATTCGCACCGACAC”, for which the “relative integration efficiency (log2)” value in data set [1] was 0.0202 ± 0.033; in data set [2] it was -0.044 ± 0.11.

For “ACATTTGTTGATACAACCATAAAATGATAATTACACCCATAAATTGATAATTATCACACCCATAAATTGATATTGCAGCTGATCATAGTCAGACCAACATTGCTACGACCCGTATTCGCACCGACAC”, the results for the “relative integration efficiency (log2)” value in data set [1] and in data set [2] were 0.131 ± 0.028 and 0.0166 ± 0.64, respectively.

As for “ACATTTGTTGATACAACCATAAAATGATAATTACACCCATAAATTGATAATTATCACACCCATAAATTGATATTGCCAACCATAAAATGATAATTACTCTGATCATAGTCAGACCAAGCACCGACAC”, the entries for the “relative integration efficiency (log2)” value in data set [1] and in data set [2] were -1.11 ± 0.39 and -0.138 ± 0.05, respectively.

As to “ACATTTGTTGATACAACCATAAAATGATAATTACACCCATAAATTGATAATTATCACACCCATAAATTGATATTGCCAGTGATCATAGTCAGACCAACATTGCTACGACCCGTATTCGCACCGACAC”, the “relative integration efficiency (log2)” value in data set [1] is -0.39 ± 0.14; in data set [2], -0.53 ± 0.12.

As for “ACATTTGTTGATACAACCATAAAATGATAATTACACCCATAAATTGATAATTATCACACCCATAAATTGATATTGCCCAACCATAAAATGATAATTATCTGATCATAGTCAGACCAAGCACCGACAC”, the figures for the “relative integration efficiency (log2)” value in data set [1] and in data set [2] were -0.0286 ± 0.28 and -0.886 ± 0.6, respectively.

“ACATTTGTTGATACAACCATAAAATGATAATTACACCCATAAATTGATAATTATCACACCCATAAATTGATATTGCCGAGGATCATAGTCAGACCAACATTGCTACGACCCGTATTCGCACCGACAC”: the figures for the “relative integration efficiency (log2)” value in data set [1] and in data set [2] were 0.325 ± 0.077 and 0.294 ± 0.46, respectively.

For “ACATTTGTTGATACAACCATAAAATGATAATTACACCCATAAATTGATAATTATCACACCCATAAATTGATATTGCCGATGATCATAGTCAGACCAACATTGCTACGACCCGTATTCGCACCGACAC”, the “relative integration efficiency (log2)” value in data set [1] is 0.336 ± 0.0049; in data set [2], 0.0792 ± 0.085.

In the case of “ACATTTGTTGATACAACCATAAAATGATAATTACACCCATAAATTGATAATTATCACACCCATAAATTGATATTGCCTAGGATCATAGTCAGACCAACATTGCTACGACCCGTATTCGCACCGACAC”, the “relative integration efficiency (log2)” value in data set [1] was 0.0464 ± 0.076; in data set [2] it was 0.23 ± 0.42.

For the sequence “ACATTTGTTGATACAACCATAAAATGATAATTACACCCATAAATTGATAATTATCACACCCATAAATTGATATTGCCTCAACCATAAAATGATAATTACTGATCATAGTCAGACCAAGCACCGACAC”, the entries for the “relative integration efficiency (log2)” value in data set [1] and in data set [2] were -0.275 ± 0.21 and -1.08 ± 0.72, respectively.

Consider “ACATTTGTTGATACAACCATAAAATGATAATTACACCCATAAATTGATAATTATCACACCCATAAATTGATATTGCCTCCAACCATAAAATGATAATTATGATCATAGTCAGACCAAGCACCGACAC”, for which the “relative integration efficiency (log2)” value in data set [1] is -0.0389 ± 0.26; in data set [2] it was -0.77 ± 0.082.

On to “ACATTTGTTGATACAACCATAAAATGATAATTACACCCATAAATTGATAATTATCACACCCATAAATTGATATTGCCTCTAAAGTGTACAACACTTGAGAAAGTTTACTACAGGTATGCACCGACAC”, for which the “relative integration efficiency (log2)” value in data set [1] was -0.293 ± 0.28; in data set [2] it was 0.483 ± 0.017.

As for “ACATTTGTTGATACAACCATAAAATGATAATTACACCCATAAATTGATAATTATCACACCCATAAATTGATATTGCCTCTACATGAATTCAAAGTTATGTAATATAGTACTATGTACGCACCGACAC”, the results for the “relative integration efficiency (log2)” value in data set [1] and in data set [2] were -0.373 ± 0.31 and 0.172 ± 0.19, respectively.

As for “ACATTTGTTGATACAACCATAAAATGATAATTACACCCATAAATTGATAATTATCACACCCATAAATTGATATTGCCTCTAGCTTGATCTACATTGGATTGCCATTCTCTCACAGTAGCACCGACAC”, the “relative integration efficiency (log2)” value in data set [1] stood at 0.0681 ± 0.22; in data set [2] it was 0.213 ± 0.1.

As for “ACATTTGTTGATACAACCATAAAATGATAATTACACCCATAAATTGATAATTATCACACCCATAAATTGATATTGCCTCTATGTACACTGATGAGTTATTACACCTCAAGTTCAATGGCACCGACAC”, the “relative integration efficiency (log2)” value in data set [1] was -0.228 ± 0.28; in data set [2], -0.281 ± 0.31.

Regarding “ACATTTGTTGATACAACCATAAAATGATAATTACACCCATAAATTGATAATTATCACACCCATAAATTGATATTGCCTCTCAACCATAAAATGATAATTAGATCATAGTCAGACCAAGCACCGACAC”, the “relative integration efficiency (log2)” value is -0.0518 ± 0.26 in data set [1] and 0.308 ± 0.018 in data set [2].

In the case of “ACATTTGTTGATACAACCATAAAATGATAATTACACCCATAAATTGATAATTATCACACCCATAAATTGATATTGCCTCTCAGACCACATAGCTGCCATGTCCTGATCGGACGGACCGCACCGACAC”, the “relative integration efficiency (log2)” value in data set [1] is 0.787 ± 0.22; in data set [2], 0.624 ± 0.19.

On to “ACATTTGTTGATACAACCATAAAATGATAATTACACCCATAAATTGATAATTATCACACCCATAAATTGATATTGCCTCTCCGACCCGGAAGAGGGCGCCTAGAATTGGGAGTGGTCGCACCGACAC”, for which the results for the “relative integration efficiency (log2)” value in data set [1] and in data set [2] were 0.139 ± 0.13 and 0.134 ± 0.075, respectively.

As for “ACATTTGTTGATACAACCATAAAATGATAATTACACCCATAAATTGATAATTATCACACCCATAAATTGATATTGCCTCTCGCGAGAGGCCGGCAGCCGTCTGGCGTCGGGTGGCGGGCACCGACAC”, the “relative integration efficiency (log2)” value in data set [1] stood at 0.713 ± 0.16; in data set [2], 0.646 ± 0.53.

On to “ACATTTGTTGATACAACCATAAAATGATAATTACACCCATAAATTGATAATTATCACACCCATAAATTGATATTGCCTCTGACAACCATAAAATGATAATTATCATAGTCAGACCAAGCACCGACAC”, for which the “relative integration efficiency (log2)” value in data set [1] is -0.213 ± 0.28; in data set [2], -0.0996 ± 0.32.

For “ACATTTGTTGATACAACCATAAAATGATAATTACACCCATAAATTGATAATTATCACACCCATAAATTGATATTGCCTCTGACTTAAACAAAATATATCTTGCCCGCCTTACAAATAGCACCGACAC”, the results for the “relative integration efficiency (log2)” value in data set [1] and in data set [2] were 0.417 ± 0.32 and 0.774 ± 0.22, respectively.

Consider “ACATTTGTTGATACAACCATAAAATGATAATTACACCCATAAATTGATAATTATCACACCCATAAATTGATATTGCCTCTGATAACTTCGTATAAAGTATCCTATACGAAGTTATTCGCACCGACAC”, for which the “relative integration efficiency (log2)” value in data set [1] is -0.255 ± 0.26; in data set [2], 0.85 ± 0.066.

Take “ACATTTGTTGATACAACCATAAAATGATAATTACACCCATAAATTGATAATTATCACACCCATAAATTGATATTGCCTCTGATAACTTCGTATAAGGTATACTATACGAAGTTATTCGCACCGACAC”: the “relative integration efficiency (log2)” value in data set [1] is -0.433 ± 0.28; in data set [2] it was 1.55 ± 0.38.

Take “ACATTTGTTGATACAACCATAAAATGATAATTACACCCATAAATTGATAATTATCACACCCATAAATTGATATTGCCTCTGATAACTTCGTATAATGTATACTATACGAAGTTATTCGCACCGACAC”: the “relative integration efficiency (log2)” value was -1.3 ± 0.39 in data set [1] and 1.63 ± 0.07 in data set [2].

Turning to “ACATTTGTTGATACAACCATAAAATGATAATTACACCCATAAATTGATAATTATCACACCCATAAATTGATATTGCCTCTGATAACTTCGTATAATGTATCGTATACGAACGGTATCGCACCGACAC”, the “relative integration efficiency (log2)” value in data set [1] is -0.379 ± 0.29; in data set [2], -0.264 ± 0.53.
